Consider two molecules from patent US20210171613A1 (NATIONAL RESEARCH COUNCIL OF CANADA, published 2021).

Assay [1] deals with T1, Clostridium difficile toxin A (TcdA) (Clostridium difficile, UniProt P16154 1-2710).
T1 construct: mature; also called full-length TcdA
The experiment in a line: SPR (Biacore 3000), VHH over immobilized TcdA; binding free energy difference relative to parent VHH. The procedure: (§1) Before surface plasmon resonance (SPR) binding experiments, IMAC-purified VHHs were subjected to de-salting and further purification by size-exclusion chromatography (SEC). Approximately 500 μg of each VHH was injected over a Superdex 75 Increase 10/300 GL SEC column (GE Healthcare) in Biacore running buffer HBS-EP (10 mM HEPES pH 7.4, 150 mM NaCl, 3 mM EDTA, 0.005% (v/v) P20; GE Healthcare) under the control of an ÄKTA FPLC at 0.8 mL/min. Monomeric VHH fractions were collected and analyzed for binding to TcdA using a Biacore 3000 SPR instrument (GE Healthcare). Approximately 4,500 resonance units (RUs) of TcdA (List Biological Laboratories, Campbell, Calif.) were immobilized on a CM5 sensor chip (GE Healthcare) using the conditions previously described (Hussack et al, 2011). HBS-EP running buffer was used for all binding studies and regeneration of TcdA surfaces. Next, various dilution ranges of VHHs (as low as 10 nM-0.5 nM to as high as 5 μM-50 nM) were injected over immobilized TcdA at a flow rate of 40 μL/min with 120 s contact time and 600 s dissociation. Reference-subtracted sensorgrams were analyzed with BIAevaluation software (GE Healthcare) and fit to a 1:1 binding model. In cases where rapid kₒₙ and koff rate constants were observed, equilibrium dissociation constants (KDs) were determined by steady-state analysis.

For assay [2], the target named is T1, Clostridium difficile toxin A (TcdA). The experiment in a line: SPR (Biacore 3000), VHH over immobilized TcdA, steady-state analysis. As for the experimental part:
as §1
A general note: SPR reads the build-up and loss of mass on a sensor chip optically.

For assay [3] the target is unchanged. The experiment in a line: SPR on immobilized TcdA. As for the experimental part:
as §1
The location of these mutations relative to the antigen epitope is illustrated in FIG. 2C.

Assay [4] has the same target. The experiment in a line: SPR (Biacore 3000), VHH over immobilized TcdA; ratio of parent KD to mutant KD. The procedure: as §1

T1 sequence (P16154 whole entry): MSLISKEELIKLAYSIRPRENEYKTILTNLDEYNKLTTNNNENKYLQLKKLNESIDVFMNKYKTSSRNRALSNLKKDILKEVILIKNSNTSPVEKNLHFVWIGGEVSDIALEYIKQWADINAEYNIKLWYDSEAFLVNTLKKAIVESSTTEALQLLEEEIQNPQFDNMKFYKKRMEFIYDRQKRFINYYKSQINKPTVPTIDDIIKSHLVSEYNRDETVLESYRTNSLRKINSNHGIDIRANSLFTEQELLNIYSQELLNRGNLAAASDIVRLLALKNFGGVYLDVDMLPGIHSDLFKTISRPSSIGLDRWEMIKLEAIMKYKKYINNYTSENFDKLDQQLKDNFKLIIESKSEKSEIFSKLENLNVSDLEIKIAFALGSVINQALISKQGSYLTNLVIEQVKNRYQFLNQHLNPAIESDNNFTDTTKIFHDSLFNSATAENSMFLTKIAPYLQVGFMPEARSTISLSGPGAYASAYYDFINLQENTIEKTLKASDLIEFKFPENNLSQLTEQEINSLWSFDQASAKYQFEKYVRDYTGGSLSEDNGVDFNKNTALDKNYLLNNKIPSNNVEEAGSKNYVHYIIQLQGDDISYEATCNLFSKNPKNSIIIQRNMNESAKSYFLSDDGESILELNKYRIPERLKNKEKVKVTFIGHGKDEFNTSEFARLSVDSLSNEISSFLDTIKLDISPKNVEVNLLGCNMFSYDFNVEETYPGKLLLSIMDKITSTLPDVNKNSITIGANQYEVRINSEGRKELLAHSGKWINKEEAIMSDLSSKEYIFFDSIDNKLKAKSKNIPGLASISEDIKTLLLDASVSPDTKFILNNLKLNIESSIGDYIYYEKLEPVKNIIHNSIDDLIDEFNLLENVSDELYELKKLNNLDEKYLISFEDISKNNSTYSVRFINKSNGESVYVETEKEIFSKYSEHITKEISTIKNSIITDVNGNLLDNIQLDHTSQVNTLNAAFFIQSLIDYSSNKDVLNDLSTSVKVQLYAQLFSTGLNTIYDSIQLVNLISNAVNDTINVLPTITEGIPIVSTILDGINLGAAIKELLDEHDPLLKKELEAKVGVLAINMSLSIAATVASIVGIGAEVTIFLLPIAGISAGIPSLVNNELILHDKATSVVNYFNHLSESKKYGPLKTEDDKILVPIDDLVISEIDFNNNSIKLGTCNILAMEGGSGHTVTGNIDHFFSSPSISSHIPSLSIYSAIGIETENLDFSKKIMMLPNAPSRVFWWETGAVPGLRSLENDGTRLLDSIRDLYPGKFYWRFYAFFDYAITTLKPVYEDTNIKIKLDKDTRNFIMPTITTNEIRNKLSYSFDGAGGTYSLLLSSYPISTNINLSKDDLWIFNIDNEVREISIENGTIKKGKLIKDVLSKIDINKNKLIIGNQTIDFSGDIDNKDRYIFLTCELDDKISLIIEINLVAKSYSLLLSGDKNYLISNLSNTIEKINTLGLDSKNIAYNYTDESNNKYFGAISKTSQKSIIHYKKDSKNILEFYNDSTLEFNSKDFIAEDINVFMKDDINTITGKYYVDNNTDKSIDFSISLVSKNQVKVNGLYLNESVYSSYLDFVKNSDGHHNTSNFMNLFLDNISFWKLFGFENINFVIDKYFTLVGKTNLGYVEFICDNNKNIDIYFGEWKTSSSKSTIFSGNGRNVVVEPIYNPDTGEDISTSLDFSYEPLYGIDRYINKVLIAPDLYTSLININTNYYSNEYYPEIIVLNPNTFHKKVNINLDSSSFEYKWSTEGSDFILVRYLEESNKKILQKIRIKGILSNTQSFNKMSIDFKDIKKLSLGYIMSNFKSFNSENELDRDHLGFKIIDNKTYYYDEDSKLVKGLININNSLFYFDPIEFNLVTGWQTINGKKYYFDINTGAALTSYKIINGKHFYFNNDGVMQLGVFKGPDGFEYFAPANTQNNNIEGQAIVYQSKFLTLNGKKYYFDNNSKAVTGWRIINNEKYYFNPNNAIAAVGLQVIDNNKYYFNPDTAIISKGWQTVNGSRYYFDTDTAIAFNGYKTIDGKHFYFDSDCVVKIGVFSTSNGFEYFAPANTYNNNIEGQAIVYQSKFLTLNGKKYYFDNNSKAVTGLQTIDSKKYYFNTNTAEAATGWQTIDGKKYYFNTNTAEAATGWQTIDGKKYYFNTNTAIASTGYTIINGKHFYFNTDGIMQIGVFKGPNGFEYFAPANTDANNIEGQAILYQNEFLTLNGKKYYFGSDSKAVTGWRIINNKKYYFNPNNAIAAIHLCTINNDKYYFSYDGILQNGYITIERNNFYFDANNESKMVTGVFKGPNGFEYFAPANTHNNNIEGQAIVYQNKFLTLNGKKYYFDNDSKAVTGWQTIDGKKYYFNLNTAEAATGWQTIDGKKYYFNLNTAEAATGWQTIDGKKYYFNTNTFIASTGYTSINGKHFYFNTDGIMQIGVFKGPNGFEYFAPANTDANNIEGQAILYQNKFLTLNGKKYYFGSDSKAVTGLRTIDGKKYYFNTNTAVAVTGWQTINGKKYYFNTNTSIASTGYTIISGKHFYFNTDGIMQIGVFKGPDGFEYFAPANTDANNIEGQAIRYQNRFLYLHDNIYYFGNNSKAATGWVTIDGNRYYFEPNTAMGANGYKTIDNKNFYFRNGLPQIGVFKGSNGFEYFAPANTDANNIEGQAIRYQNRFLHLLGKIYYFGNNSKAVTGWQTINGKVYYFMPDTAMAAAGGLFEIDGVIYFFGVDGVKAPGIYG

B1: A26.8 VHH mutant Q106L (VHH, not shown: small tags and cut ends)
VHH: QVKLEESGGGLVQAGGSLRLSCAASERTFSRYPVAWFRQAPGAEREFVAVISSTGTSTYYADSVKGRFTISRDNAKVTVYLQMNNLKREDTAVYFCAVNSQRTRLLDPNEYDYWGQGTQVTVSS
On to B1, for which, in assay [1], the ΔΔG turned out to be 2.04 kcal/mol. Further, in assay [2], the dissociation constant (Kd) (usually the constant that tells how readily two partners part at equilibrium) is 612 nM. Moreover, in assay [3], the “fold decrease in affinity relative to parent A26.8 VHH” value was in the range of 30 to 300 fold. Also, in assay [4], the “KD^WT/KD” value is 0.03.

B2: A26.8 VHH mutant S53R (VHH, not shown: small tags and cut ends)
VHH: QVKLEESGGGLVQAGGSLRLSCAASERTFSRYPVAWFRQAPGAEREFVAVISRTGTSTYYADSVKGRFTISRDNAKVTVYLQMNNLKREDTAVYFCAVNSQRTRLQDPNEYDYWGQGTQVTVSS
Take B2: in assay [1], the ΔΔG was 1.45 kcal/mol. Moreover, the Kd in assay [2] turned out to be 224 nM. For the same molecule, the “fold decrease in affinity relative to parent A26.8 VHH” value in assay [3] is around 10 fold. Besides, the “KD^WT/KD” value in assay [4] stood at 0.08.
